Results as given in the nanobody polyreactivity screen of Harvey et al. (2022).

assay: yeast display, Sf9 membrane polyspecificity reagent, FACS + sequencing; frameworks hold sequencing errors
How it was run: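 Galactose induction of a Saccharomyces cerevisiae BJ5465 synthetic nanobody display library ran 36–48 hours. The cells were then stained for 1 hour at 4 °C with 10% biotinylated, detergent-solubilized Sf9 membrane reagent, pulled down on streptavidin microbeads and FACS-sorted into low and high (top ~1%) gates on expression and reagent-binding fluorescence. Labels for polyreactivity follow the gate of origin.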

Row | Sequence | polyreactivity (PSR sort gate)
1 | QVQLVESGGCLVQAGGSLRLSCAASGRTFRWYAMGWYRQAPGKESELVAAINPGGSTNYADSVKGRFSISRDNAKNTVYLQMNSLKPEDTAVYYCNAAGYDALTHNYYWGQGTQVTVSS | low polyreactivity
2 | QVQLVESGGCLVQAGGSLRLSCAASGRTFYIYAMGWYRQAPGKERELVAAINFSDGSTSYADSVKGRFTISRDNAKHTVYLQMNSLKPEDTAVYYWGQGTKVTVSS | low polyreactivity
3 | QVQLVESGGCLVQAGGSLRLSCAASGRTFYPYAMGWYRQAPGQDRELVAAIRSSGGTTYYADSVKGRFTISRDNAKNTVYLQMNSLKREDTAVYYCAAFVDRQGGYYWGQGTQVTVSS | high polyreactivity
4 | QVQLVESGGCLVQAGGSLRLSCAASGRTLGYYTMGWYRQAPGKERELVATITPGGSTSYADSVKGRFTISRDNAKNTVYLQMNSLKPEDTAVYYCARTRPYYLLYSSNFRYDYWGQGTQVTVSS | high polyreactivity
5 | QVQLVESGGCLVQAGGSLRLSCAASGSIFDVNAMGLYRQAPGKERELVAAISDSGGSTYYADSVKGRFTISRDNAKNTVYLQMNSLKPEDTAVYYCNADWSLYNYYDFDYWGQGTQVTVSS | low polyreactivity
6 | QVQLVESGGCLVQAGGSLRLSCAASGSIFVAYAMGWYRQAPGKERELVAAITGRSGRTYYADSVKGRFTISRDNAKNTVYLQMNSLKPEDTAVYYCAARGYGTDDYDYCGQGTQVTVSS | high polyreactivity
7 | QVQLVESGGCLVQAGGSLRLSCAASGSTFDYYAMGWYTQAPGKERELVAAISSSGSSTYYADSVKGRFTISRDNAKNTVYLQMNSLKPEDTAVYYCAKGTNYRDDYWGQGTQVTVSS | low polyreactivity
8 | QVQLVESGGCLVQAGGSLRLSCAASGSTFGYNAMGWYRQATGKERELVAAITWTGASTYYADSVKGRFTISRDNAKNTVYLKINSLKPEDTEVYYCNRVGYQSMNYWGQGTQVTVSS | low polyreactivity
9 | QVQLVESGGCLVQAGGSLRLSCAASGSTFKTYTMGWYRQAPGKERELVAAITWSGGRTYYADSGKGRFTISRDNAKNTVYLQMNSLKPEDTAVYYCAADWGEEYTRDDYCGQGTQVTVSS | low polyreactivity
10 | QVQLVESGGCLVQAGGSLRLSCAASGSTFRYNAMGWYRPAPGKERELVAAITSSGGRTYYADSVKGRFTISRDNAKNTVYLQMNSLKPEDTAVYYCARRYLSVRGDSWGQGTQVTVSS | high polyreactivity
11 | QVQLVESGGCLVQAGGSLRLSCAASGSTFWGYTMGWYRQAPGKVRELVAAISSDGSTNYADSVKGRFTISRDNAKNTVYLQMNSLKPEDTAVYDCNTVYDPDTGQSDSWGQGTQVTVSS | low polyreactivity
12 | QVQLVESGGCLVQAGGSLRLSCAASGSTFYVYTMGWYTQAPGKESELVAAISWTDGDTYYADSVKGRFTISRDTAKKTVYLEMNSLKPEDTAVYYCAADIAWLWWYGPGYDYWGQGTQVTVSS | low polyreactivity
13 | QVQLVESGGCLVQAGGSLRLSCAASGYIFFINSMGWYRQAPGKERELVAAITRRGVSTYYADSVKGRFTISRDNAKNSVYLQMHSLKPEDTAVYYCATEHNHLGYYYWGQGTQVTVSS | low polyreactivity
14 | QVQLVESGGCLVQAGGSLRLSCAASRRIFNYYAMGWYRQAPGKERELVAAINSGGSTYADSVKGRFTISRDNAKNTVYLQMNSLKPEDTAVYYCAKDGQLLSGRERPSGYDHWGQGTQVTVSS | low polyreactivity
15 | QVQLVESGGCLVQAGGSLRLSCAATGSIFYGNTMVWYRQAPGKDRELLAAISSGGSTKYADSVKGRFTISRDNAKNTVYLQMNSLKPEDTAVYYCAADLPRYWVTWMDYRGQGTQVTVSS | low polyreactivity
16 | QVQLVESGGCLVQAGGSLRLSCADSGLTFTHYTKGWYRQAPGKVRELVAAITTSGGSTYYADSVKGRFTISRDNAKNTVYLQMNSLKPEDTAVYDCDSDVWYWTYIGEYWGQGTQVTVSS | high polyreactivity
17 | QVQLVESGGCLVQAGGSLRLSCASSGRTFLVYAMGWYRQAPGKERELVAAITSGGSTYYADSVKGRFTISRDNAKNTVYLQMNSLKPEDTAVYYCAAKIRGYPRRRYDYWGQGTQVTVSS | high polyreactivity
18 | QVQLVESGGCLVQAGGSLRLSCDASGGIFVSYAMGWYRQAPRKDRELVAAITSGGGTSYADSVKGRFTISRDNAKNTVYLQMNSLKPEDTAVYYCNADGYLAERFVIRLDEYRDYDYWGQGTQVTVSS | low polyreactivity
19 | QVQLVESGGCLVQAGGSLRLSCDAYGSTFDDNAMGWYRQAPGKERELVAGISTNGGSTSYADSVKGRFTISRDNAKNTVYLQMNSLKPEDTAVYYCAKGLYVHFDYWGQGTQVTVSS | low polyreactivity
20 | QVQLVESGGCLVQAGGSLRLSCPASGSNFPDNAMGRYRPAPGKERELVAAISLSGGRTYYADSVKGRFTISRDNAKNTVYLQMNSLKPDDTAVYYCNKLTRFVKYDYWGQGTQVTVSS | high polyreactivity
21 | QVQLVESGGCLVQAGGSLRLSCSASGRIFNTYAMGWYRQAPGKERDLVARISSGGTTYYADSVKGRFTISRDNAKNTVYLQMNSLKPEDTAVYYCNVRAVTPTRSRPFRYDYWGQGTQVTVSS | high polyreactivity
22 | QVQLVESGGCLVQAGGSLRLSCVASGRTFRRYAMGWYRQAPGKERELLSTITLNGGSTYYADSVKGRFTISRDNATNTVDLQMNSLKPEDTAVYDCKRCTNVVRRGVYSFGYDYWGEGTQVTVSS | low polyreactivity

Row | Sequence | polyreactivity (PSR sort gate)
23 | QVQLVESGGCLVQAGGSLRLSSAASGSTFRQYAMGWYRQAPGKERELVAAITWRGDNTYYADSVKGRFTISRDNAKNSVYLQMNSLKPEDTAVYYCAARWSYRLYWGYGYWGQGTQVTVSS | low polyreactivity
24 | QVQLVESGGCLVQAGGSLRLSWDASGSIFLGYTIGWYRQAPGKERELVAAINSSGGSTYYAYSVKGRFTISRDNAKNTVFLQMNSLKPDDTAVYYCADANSILLFDSWGQGTQVTVSS | low polyreactivity
25 | QVQLVESGGCLVQAGGSLRLTCAASGYIFANNARGWYRQAPGTERELVAAISSSGGRTYYADSVKGRFTISRDNAKNTVYLQMNSLKPEDTAVYYCAAESVDNIYYGFDYWGQGTQVTVSS | high polyreactivity
26 | QVQLVESGGCLVQAGGSLSLSCAASGSIFGWYVMGWYRQAPGKERELGAAISSVGSTYYADSVKGRFTISRDNAKNTVYLQMNSLKPEDTAVYYCAKLRYPYLFSDDSEYWGQGTQVTVSS | low polyreactivity
27 | QVQLVESGGCLVQAQGSLRLSCAASGFTFGYNAMGWYRQAPGKERELVAVISSRGGRTYYADSVKGRFTISRDNAKNTVYLQMYSLKPEDTAVYYCAKRSGSYSYPAVGGWGLGYCGQGTQVTVSS | high polyreactivity
28 | QVQLVESGGCLVQPGGSLRLSCAASGRTSVRNAMGWYRQAPGKERELVAAISNGGRTNYADSVKGRFTISRGNAKNTVYLQMNSLKPQDTAVYYCAARGFWLYYHGGVRSGYDYWGQGTQVTVSS | high polyreactivity
29 | QVQLVESGGFLVQAGGSLRLSCDASGSILADTSLGWYRQAPGKERELVAAISRRGGRTYYADSVKGRFTISRDNAKNTVYLQMNSLKPEDTGGYYCAAVGSFHIGDYWGLGTQVTVSS | high polyreactivity
30 | QVQLVESGGGCVQAGGSLRLSCAASGFIFEQNAKGWYRQARGKEWELVARISWRGGSTYYADSEKGRFTISRDKAKITVYLQMNSLKPEDSAVYYCNAHEVDYFGYYPSDYWGQGTQVTVSS | low polyreactivity
31 | QVQLVESGGGFFQAGGSLRLSCAASGTIGRNAMGWYRQAPGKESEFVPAISYRGTSTYYADSVKGRFTISRDNAKNTVYLQMKSLKPDDTAVYYCATYWAAGYRSRYDYWGQVTQVTVSS | high polyreactivity
32 | QVQLVESGGGFVQAGASLRLSCAASGSIFRIYAIGWYRQAPGKERELVAAIDSGGSTNYADSVKGRFTISRDNAKNTVYLQMNSLKPEDTAVYYCNVDAWWLSYSEYDYWGQGTQVTVSS | high polyreactivity
33 | QVQLVESGGGFVQAGGRLRLSCAASGRIFWMNAMGWYRQAPGKETEFVASITYGSDSTYYADSVKGRFTISRDNAKNTVYLQMNSLKPEDTAVYYCNREGWHYGPYGYWGQGTQVTVSS | low polyreactivity
34 | QVQLVESGGGFVQAGGSLGLSCAASGSTFQFYALGWYRQAPGKERELVAVITSGDDTNYADSVKGRFTISRDNATYTVYLQMNSLKPEDTAVYYCAVEYILVYTRVRSYWFDYWGQGTQVTVSS | low polyreactivity
35 | QVQLVESGGGFVQAGGSLPLSCAASGRTFGPYAMRWYRQAPGKERELVAAISSSDGSTYYADSVKGRFTISRDNAKNTVYLQMNSLKPEDTAVYYCNARYYLWSTTRWYGYDYWGQGTQVTVSS | high polyreactivity
36 | QVQLVESGGGFVQAGGSLRLRCAASGLIFAPYAMGWYRQAPGKEREFVAAITRSDGSTYYADSVKGRFTISRDNAKNTVYLQMNSLKPEDTAVYYCAAEPDTYWYTYDYWGQGSQVTVSS | low polyreactivity
37 | QVQLVESGGGFVQAGGSLRLSCAACGSTFATYGMGWYRQAPGKERELVADITSGGSTYYADSVKGRFTISRDNAKNTVYLQMNSLKPEDTAVYSCNAPYGGPYYIQYDYWGQGTQVTVSS | low polyreactivity
38 | QVQLVESGGGFVQAGGSLRLSCAASGFIFAVNAMGWYRQAPGKERELVAAISSSGTTNYADSVKGRFTISRDNAKNTVYLQMNSLKPEDTAVYYCNKRWRDKYPQYDYWGQGTQVTVSS | low polyreactivity
39 | QVQLVESGGGFVQAGGSLRLSCAASGFIFTKYAMGWYRQAPGKERELVAAIRGSGGSTYYADSVKGRVTISRDNAKNTVYLQMNSLKPEDTAVYYCAAERSLGYDYWGQGTQVTVSS | high polyreactivity
40 | QVQLVESGGGFVQAGGSLRLSCAASGFTFWVYAMGWYRQAPGKERELVAGITWSGGSTSYADSVKGRFTISRDNAKNTVYLQMNSLKPEDTAVYYCAADDFGYPDDMNYWGQGTQVTVSS | low polyreactivity
41 | QVQLVESGGGFVQAGGSLRLSCAASGFTFYRNAMGWYRQAPGKERELVAAITWSGTSTYYADSVKGRFTISRDNAKTTVYVQMNSLKPEDTAVYYCNTVGYRGRSNSRFYYWGQGTQVTVSS | high polyreactivity
42 | QVQLVESGGGFVQAGGSLRLSCAASGHIFFYYTKGWYRQAPGKERELVAGITIGGSTNYADSVKGRFTISRDNAKNSVYLQMNSLKPEDTAVYYCYVVLYVSIYSYGEYYYWGQGTQVTVSS | low polyreactivity
43 | QVQLVESGGGFVQAGGSLRLSCAASGRIFVVNAMLWYRPAPAKESEFVAAISRSGGSTYYADSVKGRFTISRDKATNTVYLQMNSLKREDTAVYYCAADIVGFRTSGTYEYWGHGTQVTVSS | low polyreactivity
